The EC50 is the midpoint of the concentration-response curve.

The record followed here is publication PMC5579192, “De novo design of antibody complementarity determining regions binding a FLAG tetra-peptide” (Scientific Reports, 2017).

What all share (details): both partners purified
Assay [1] deals with T1, carrier protein (scFv 14B7) with the minimal DYKD peptide at the n-terminus (synthetic peptide tag (minimal FLAG)).
T1 construct: minimal FLAG peptide at the protein n-terminus; irrelevant scFv 14B7 used as carrier protein; also called n-DYKD; n-DYKD ligand; source: plasmid pAK400/14B7
Put plainly: ELISA; wells coated with carrier protein ligands (10 μg/mL); purified Fab serially diluted; detected with goat-anti-human kappa-HRP.

Assay [2] deals with T2, MBP-KEE ligand (EE peptide) (peptide tag (EE/Glu-Glu), derived from …).
T2 construct: EE peptide presented by MBP
T2 chain: EYMPME
The assay is described as above.

Assay [3] concerns the target T2, MBP-KEE ligand (EE peptide). Put plainly: ELISA; monoclonal phage ELISA: phage purified by NaCl-PEG precipitation, serially diluted at known pfu, on wells coated with ligand (4 μg/ml); detected with anti-M13-HRP; signal shown at 10^11 pfu. A general note: In an ELISA, binding on a coated surface is turned into a signal by an enzyme label.
Assay [4] has as its target T3, carrier protein (scFv 14B7) with the minimal DYKD peptide at the n-terminus (synthetic peptide tag (minimal FLAG)).
T3 construct: minimal FLAG peptide at the protein n-terminus; irrelevant scFv 14B7 used as carrier protein; also called n-DYKD; n-DYKD ligand; source: plasmid pAK400/14B7
T3 chain: DYKD
As to the kind of experiment: ELISA; wells coated with carrier protein ligands (10 μg/mL); purified Fab serially diluted; detected with goat-anti-human kappa-HRP.

The target in assay [5] is T2, MBP-KEE ligand (EE peptide). Described as above.

Numbering of substitutions follows the chain as printed.

B1: EEf15.4 Fab (Fab, V domains shown)
VH: QVQLQQSGPEDVKPGASVKISCKASGFSIKGANVNWVKQSPGKGLEWLAHVRGDASTRYNPSLKSRATLTVDKTSSTVYLELRSLTSEDSSVYYCADRKMYSFYSGGEAWGQGTTVTVSS
VL: DIVMTQTPSSLPVSLGDQASISCRSSNARSGSLEWYLQKPGQSPKLLIYDGNNRFSGVPDRFSGSGSGTDFTLKISRVEAEDLGIYYCSAFDQTNKYVGFGAGTKLELK
notes: VH as the VH of m3: framework of the αEE scFv (PDB 3NN8) with designed CDRs H1-H3; heavy chain constant part of the Fab from the vector pFabF; not described; VL as the VL of m3: framework of the αEE scFv (PDB 3NN8) with designed CDRs L1-L3; kappa light chain constant domain from the vector pFabF; human by the detection reagent (goat anti-human kappa); also called Fab EEf15.4
B1 had an EC50 in assay [1] of 4.1 nM. Also, the binding result in assay [2] is “no binding”.

B2: EEf15.4a scFv displayed on phage (scFv, V domains shown)
VH: B1 VH with F27Y, S28I, I29G, K30S, G31S, A32H, N33T
VL: B1 VL
notes: VL as the VL of EEf15.4: framework of the αEE scFv (PDB 3NN8) with designed CDRs L1-L3; linker, printed as (GGGGS)4; VH as the VH of EEf15.4 except CDR H1, which is that of design EEf5.1; framework of the αEE scFv (PDB 3NN8); Result of a gene synthesis error that combined CDR H1 of EEf5.1 with the other five CDRs of EEf15.4; also called EEf15.4a scFv-phage; source: E. coli, scFv fused …
Turning to B2, the binding result in assay [3] is “no binding”.

B3: EEf15.4a Fab (Fab, V domains shown)
VH: B1 VH with F27Y, S28I, I29G, K30S, G31S, A32H, N33T
VL: B1 VL
notes: VH as the VH of m4: as EEf15.4 except CDR H1, which is that of design EEf5.1; framework of the αEE scFv (PDB 3NN8); heavy chain constant part of the Fab from the vector pFabF; not described; VL as the VL of m3: framework of the αEE scFv (PDB 3NN8) with designed CDRs L1-L3; kappa light chain constant domain from the vector pFabF; human by the detection reagent (goat anti-human kappa); also called …
Take B3: in assay [1], the concentration giving a half-maximal response (EC50) was determined as 4.8 nM. Besides, the binding result in assay [2] was “no binding”.

B4: EEf15.4 scFv displayed on phage (scFv, V domains shown)
VH: B1 VH
VL: B1 VL
notes: VL: framework of the αEE scFv (PDB 3NN8) with designed CDRs L1-L3; model PDB file in the supplementary datasets; linker, printed as (GGGGS)4; VH: framework of the αEE scFv (PDB 3NN8) with designed CDRs H1-H3; Orientation VL-(GGGGS)4-VH; no amino acid differences from αEE outside the CDRs; also called EEf15.4 scFv-phage; source: E. coli, scFv fused to truncated pIII on phage (phagemid pMopac24); …
For the molecule B4, the binding result in assay [3] is listed as “no binding”.

B5: EEh13.6 Fab (Fab, V domains shown)
VH: QVQLQQSGPEDVKPGASVKISCKASGDSLSSFNAGVNWVKQSPGKGLEWLAHGAVMSTRYNPSLKSRATLTVDKTSSTVYLELRSLTSEDSSVYYCAKSTGRYDFWGQGTTVTVSS
VL: DIVMTQTPSSLPVSLGDQASISCRSSQSIVHSNGNTYLEWYLQKPGQSPKLLIYKVSNRFSGVPDRFSGSGSGTDFTLKISRVEAEDLGIYYCFQGSLVPPTFGAGTKLELK
notes: VH as the VH of m1: framework of the αEE scFv (PDB 3NN8) with designed CDRs H1-H3; heavy chain constant part of the Fab from the vector pFabF; not described; VL as in the αEE scFv (PDB 3NN8), not modified in the EEh library; kappa light chain constant domain from the vector pFabF; human by the detection reagent (goat anti-human kappa); This Fab co-purified with free light chain (33 % monomer); …
In the case of B5, in assay [4], the EC50 worked out at 21 nM. In addition, in assay [2], the binding result is listed as “no binding”.

B6: αEE Fab (parental) (Fab, V domains shown)
VH: QVQLQQSGPEDVKPGASVKISCKASGYSLSTSGMGVNWVKQSPGKGLEWLAHIYWDDDKRYNPSLKSRATLTVDKTSSTVYLELRSLTSEDSSVYYCARRGGSSHYYAMDYWGQGTTVTVSS
VL: B5 VL
notes: VH of the αEE scFv; heavy chain constant part of the Fab; not described; VL of the αEE scFv; kappa light chain constant domain; human by the detection reagent (goat anti-human kappa); also called parental αEE Fab; source: bacterial periplasm, purified Fab
On to B6, for which it took 35.3 nM to reach a half-maximal effect in assay [5] (EC50).

B7: EEh14.3 Fab (Fab, V domains shown)
VH: QVQLQQSGPEDVKPGASVKISCKASGDSLSSYNAGVNWVKQSPGKGLEWLAHMAGVSTRYNPSLKSRATLTVDKTSSTVYLELRSLTSEDSSVYYCVRNEWSGAFWGQGTTVTVSS
VL: B5 VL
notes: VH as the VH of m2: framework of the αEE scFv (PDB 3NN8) with designed CDRs H1-H3; heavy chain constant part of the Fab from the vector pFabF; not described; VL as in the αEE scFv (PDB 3NN8), not modified in the EEh library; kappa light chain constant domain from the vector pFabF; human by the detection reagent (goat anti-human kappa); also called Fab EEh14.3
B7: it took 50 nM to reach a half-maximal effect in assay [4] (EC50). Further, in assay [2], the binding result was “no binding”.

B8: EEh14.3 scFv displayed on phage (scFv, V domains shown)
VH: B7 VH
VL: B5 VL
notes: VL as in the αEE scFv (PDB 3NN8); the light chain was not modified in the EEh library; linker, printed as (GGGGS)4; VH: framework of the αEE scFv (PDB 3NN8) with designed CDRs H1-H3; model PDB file in the supplementary datasets; Orientation VL-(GGGGS)4-VH; no amino acid differences from αEE outside the CDRs; also called EEh14.3 scFv-phage; source: E. coli, scFv fused to truncated pIII on phage …
Take B8: the binding result in assay [3] was “no binding”.

B9: EEh13.6 scFv displayed on phage (scFv, V domains shown)
VH: B5 VH
VL: B5 VL
notes: VL as in the αEE scFv (PDB 3NN8); the light chain was not modified in the EEh library; linker, printed as (GGGGS)4; VH: framework of the αEE scFv (PDB 3NN8) with designed CDRs H1-H3; model PDB file in the supplementary datasets; Orientation VL-(GGGGS)4-VH; no amino acid differences from αEE outside the CDRs; also called EEh13.6 scFv-phage; source: E. coli, scFv fused to truncated pIII on phage …
For B9, the binding result in assay [3] was “no binding”.
